Laboratory results: patent US20110142851A1 (EMERGENT PRODUCT DEVELOPMENT SEATTLE, published 2011)

Target: T1, TRU(XT6)-1042
T1 construct: Xceptor, TNFRSF1B ectodomain N-terminal, anti-IL6xR domain C-terminal
Experiment: ELISA, Xceptor captured by anti-human Fc

binding result: no binding (tested: 75 pM sIL-6R)
B1: recombinant human soluble IL6 receptor (receptor)
chain: LAPRRCPAQEVARGVLTSLPGDSVTLTCPGVEPEDNATVHWVLRKPAAGSHPSRWAGMGRRLLLRSVQLHDSGNYSCYRAGRPAGTVHLLVDVPPEEPQLSCFRKSPLSNVVCEWGPRSTPSLTTKAVLLVRKFQNSPAEDFQEPCQYSQESQKFSCQLAVPEGDSSFYIVSMCVASSVGSKFSKTQTFQGCGILQPDPPANITVTAVARNPRWLSVTWQDPHSWNSSFYRLRFELRYRAERSKTFTTWMVKDLQHHCVIHDAWSGLRHVVQLRAQEEFGQGEWSEWSPEAMGTPWTESRSPPAENEVSTPMQALTTNKDDDNILFRDSANATSLPVQD
notes: also called sIL6R; sIL-6R
